# According to IntAct's records for PubMed 22878415:
# B1: SUMO-specific isopeptidase USPL1 (Homo sapiens), Q5W0Q7 (parent)
# chain: MMDSPKIGNGLPVIGPGTDIGISSLHMVGYLGKNFDSAKVPSDEYCPACREKGKLKALKTYRISFQESIFLCEDLQCIYPLGSKSLNNLISPDLEECHTPHKPQKRKSLESSYKDSLLLANSKKTRNYIAIDGGKVLNSKHNGEVYDETSSNLPDSSGQQNPIRTADSLERNEILEADTVDMATTKDPATVDVSGTGRPSPQNEGCTSKLEMPLESKCTSFPQALCVQWKNAYALCWLDCILSALVHSEELKNTVTGLCSKEESIFWRLLTKYNQANTLLYTSQLSGVKDGDCKKLTSEIFAEIETCLNEVRDEIFISLQPQLRCTLGDMESPVFAFPLLLKLETHIEKLFLYSFSWDFECSQCGHQYQNRHMKSLVTFTNVIPEWHPLNAAHFGPCNNCNSKSQIRKMVLEKVSPIFMLHFVEGLPQNDLQHYAFHFEGCLYQITSVIQYRANNHFITWILDADGSWLECDDLKGPCSERHKKFEVPASEIHIVIWERKISQVTDKEAACLPLKKTNDQHALSNEKPVSLTSCSVGDAASAETASVTHPKDISVAPRTLSQDTAVTHGDHLLSGPKGLVDNILPLTLEETIQKTASVSQLNSEAFLLENKPVAENTGILKTNTLLSQESLMASSVSAPCNEKLIQDQFVDISFPSQVVNTNMQSVQLNTEDTVNTKSVNNTDATGLIQGVKSVEIEKDAQLKQFLTPKTEQLKPERVTSQVSNLKKKETTADSQTTTSKSLQNQSLKENQKKPFVGSWVKGLISRGASFMPLCVSAHNRNTITDLQPSVKGVNNFGGFKTKGINQKASHVSKKARKSASKPPPISKPPAGPPSSNGTAAHPHAHAASEVLEKSGSTSCGAQLNHSSYGNGISSANHEDLVEGQIHKLRLKLRKKLKAEKKKLAALMSSPQSRTVRSENLEQVPQDGSPNDCESIEDLLNELPYPIDIASESACTTVPGVSLYSSQTHEEILAELLSPTPVSTELSENGEGDFRYLGMGDSHIPPPVPSEFNDVSQNTHLRQDHNYCSPTKKNPCEVQPDSLTNNACVRTLNLESPMKTDIFDEFFSSSALNALANDTLDLPHFDEYLFENY
# Variants of: B1
# Details: with sumo3_human SUMO3, P55854
# Sequence of sumo3_human SUMO3, P55854 (P55854 whole entry): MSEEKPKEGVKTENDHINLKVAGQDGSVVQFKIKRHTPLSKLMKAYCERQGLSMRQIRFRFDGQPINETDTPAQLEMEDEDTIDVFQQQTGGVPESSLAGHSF
row,effect of a mutation on the interaction,Variant
1,decreasing interaction,I494A
2,decreasing interaction,V495A

# Variants of: B1
# Details: with sumo3_human SUMO3, P55854
# Remark: another data set of the same source
row,effect of a mutation on the interaction,Variant
1,disrupting interaction,I494V
2,disrupting interaction,V495A

# Variants of: B1
# Details: with sumo3_human SUMO3, P55854
# Remark: another data set of the same source
row,effect of a mutation on the interaction,Variant
1,decreasing interaction,E331A

# Variants of: B1
# Details: with sumo3_human SUMO3, P55854
# Remark: another data set of the same source
row,effect of a mutation on the interaction,Variant
1,decreasing interaction,W237F

# Variants of: B1
# Details: with sumo3_human SUMO3, P55854
# Remark: another data set of the same source
row,effect of a mutation on the interaction,Variant
1,disrupting interaction,W237F

# Variants of: B1
# Details: with sumo3_human SUMO3, P55854
# Remark: another data set of the same source
row,effect of a mutation on the interaction,Variant
1,decreasing interaction,L340A
2,decreasing interaction,L341A

# Variants of: B1
# Details: with sumo3_human SUMO3, P55854
# Remark: another data set of the same source
row,effect of a mutation on the interaction,Variant
1,disrupting interaction,L340A
2,disrupting interaction,L341A

# Variants of: B1
# Details: with sumo3_human SUMO3, P55854
# Remark: another data set of the same source
row,effect of a mutation on the interaction,Variant
1,decreasing interaction,W229L

# Variants of: B1
# Details: with sumo3_human SUMO3, P55854
# Remark: another data set of the same source
row,effect of a mutation on the interaction,Variant
1,disrupting interaction,W229L

# Variants of: B1
# Details: with sumo3_human SUMO3, P55854
# Remark: another data set of the same source
row,effect of a mutation on the interaction,Variant
1,decreasing interaction,H421A
